Each block holds one molecule with its values, some of them ahead of it.
What was measured:
[1] = molecular target: T1, spleen tyrosine kinase (SYK) (Homo sapiens, UniProt P43405); experiment: microscale thermophoresis (MST) with GFP-fused SYK in cell lysate; supported by in vitro kinase activation of bacterially expressed SYK; assay type: binding; design: full-length SYK-EmerGFP (HEK293T lysate)
[2] = molecular target: PDK1^9CS with Cys23 rescued (human) (UniProt O15530); experiment: non-reducing gel and immunoblot; A375 cells in glucose-free medium for 3 h, with or without NAC (5 mM) or GSH (2.5 mM); PDK1 monomer and dimer bands under non-reducing conditions
[3] = molecular target: T1, spleen tyrosine kinase (SYK); experiment: microscale thermophoresis (MST) with GFP-fused SYK in cell lysate; supported by in vitro kinase activation of bacterially expressed SYK; assay type: binding; design: full-length SYK-EmerGFP (HEK293T lysate); remark: listed apart in the source
[4] = molecular target: PDK1^9CS with Cys21 rescued (human) (UniProt O15530); experiment: non-reducing gel and immunoblot; A375 cells in glucose-free medium for 3 h, with or without NAC (5 mM) or GSH (2.5 mM); PDK1 monomer and dimer bands under non-reducing conditions
[5] = molecular target: T1, spleen tyrosine kinase (SYK); experiment: microscale thermophoresis (MST) with GFP-fused SYK in cell lysate; assay type: binding; design: SYK-EmerGFP (HEK293T lysate)
[6] = molecular target: T2, endogenous PDK1 (human (endogenous in A375)), O15530; experiment: non-reducing gel and immunoblot; A375 cells in glucose-free medium for 3 h, with or without NAC (5 mM) or GSH (2.5 mM); PDK1 monomer and dimer bands under non-reducing conditions; conditions: remark: other sources report otherwise
T2 chain: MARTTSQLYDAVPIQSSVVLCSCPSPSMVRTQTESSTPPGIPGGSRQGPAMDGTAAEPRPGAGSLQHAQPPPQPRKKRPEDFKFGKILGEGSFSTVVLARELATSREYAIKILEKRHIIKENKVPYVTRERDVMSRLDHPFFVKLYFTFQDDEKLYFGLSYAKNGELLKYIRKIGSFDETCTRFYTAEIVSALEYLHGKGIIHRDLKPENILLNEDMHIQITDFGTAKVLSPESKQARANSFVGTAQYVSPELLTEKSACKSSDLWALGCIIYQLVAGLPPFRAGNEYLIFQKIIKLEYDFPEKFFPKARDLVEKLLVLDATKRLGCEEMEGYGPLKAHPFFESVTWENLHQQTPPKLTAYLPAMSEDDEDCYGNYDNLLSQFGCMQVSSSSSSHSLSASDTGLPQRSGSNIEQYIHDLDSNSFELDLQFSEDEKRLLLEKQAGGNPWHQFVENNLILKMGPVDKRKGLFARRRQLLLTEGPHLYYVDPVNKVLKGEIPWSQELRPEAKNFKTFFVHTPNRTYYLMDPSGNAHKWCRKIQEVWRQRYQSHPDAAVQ

[7] = molecular target: T3, PDK1 (exogenous, HA- or Flag-tagged) (human), O15530; experiment: as above; conditions: remark: other sources report otherwise
T3 chain: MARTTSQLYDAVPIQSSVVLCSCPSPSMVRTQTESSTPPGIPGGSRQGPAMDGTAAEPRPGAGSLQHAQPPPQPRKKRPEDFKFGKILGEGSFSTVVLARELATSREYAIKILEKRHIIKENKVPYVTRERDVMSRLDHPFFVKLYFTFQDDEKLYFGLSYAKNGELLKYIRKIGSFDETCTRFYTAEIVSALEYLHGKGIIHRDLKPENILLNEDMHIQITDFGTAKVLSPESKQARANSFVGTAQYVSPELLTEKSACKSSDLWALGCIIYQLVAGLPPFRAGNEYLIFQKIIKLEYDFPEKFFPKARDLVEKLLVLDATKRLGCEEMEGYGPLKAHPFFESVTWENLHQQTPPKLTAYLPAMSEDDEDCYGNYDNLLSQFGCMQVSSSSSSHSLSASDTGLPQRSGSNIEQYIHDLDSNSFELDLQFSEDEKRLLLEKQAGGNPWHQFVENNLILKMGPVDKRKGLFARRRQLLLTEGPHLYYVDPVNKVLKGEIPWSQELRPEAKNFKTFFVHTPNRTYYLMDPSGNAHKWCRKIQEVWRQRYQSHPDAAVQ

Kd [1]: 69.1 ± 16.1 µM
Molecule: NC(=O)c1ccc[n+]([C@@H]2O[C@H](COP(=O)([O-])OP(=O)(O)OC[C@H]3O[C@@H](n4cnc5c(N)ncnc54)[C@H](OP(=O)(O)O)[C@@H]3O)[C@@H](O)[C@H]2O)c1 [NADP^+]

stoichiometry N [2]: 2
Molecule: PDK1^9CS with Cys23 rescued (from UniProt O15530 1-556) (enzyme)

Kd [3]: 42.4 ± 19.1 µM
Molecule: Nc1ncnc2c1ncn2[C@@H]1O[C@H](COP(=O)(O)OP(=O)(O)O)[C@@H](O)[C@H]1O [ADP]

stoichiometry N [4]: 2
Molecule: PDK1^9CS with Cys21 rescued (from UniProt O15530 1-556) (enzyme)

Kd [5]: 232 ± 16.5 µM
Molecule: NC(=O)C1=CN([C@@H]2O[C@H](COP(=O)(O)OP(=O)(O)OC[C@H]3O[C@@H](n4cnc5c(N)ncnc54)[C@H](OP(=O)(O)O)[C@@H]3O)[C@@H](O)[C@H]2O)C=CC1 [NADPH]

stoichiometry N [6]: 2
B1: endogenous PDK1, O15530 1-556 (enzyme)
chain: MARTTSQLYDAVPIQSSVVLCSCPSPSMVRTQTESSTPPGIPGGSRQGPAMDGTAAEPRPGAGSLQHAQPPPQPRKKRPEDFKFGKILGEGSFSTVVLARELATSREYAIKILEKRHIIKENKVPYVTRERDVMSRLDHPFFVKLYFTFQDDEKLYFGLSYAKNGELLKYIRKIGSFDETCTRFYTAEIVSALEYLHGKGIIHRDLKPENILLNEDMHIQITDFGTAKVLSPESKQARANSFVGTAQYVSPELLTEKSACKSSDLWALGCIIYQLVAGLPPFRAGNEYLIFQKIIKLEYDFPEKFFPKARDLVEKLLVLDATKRLGCEEMEGYGPLKAHPFFESVTWENLHQQTPPKLTAYLPAMSEDDEDCYGNYDNLLSQFGCMQVSSSSSSHSLSASDTGLPQRSGSNIEQYIHDLDSNSFELDLQFSEDEKRLLLEKQAGGNPWHQFVENNLILKMGPVDKRKGLFARRRQLLLTEGPHLYYVDPVNKVLKGEIPWSQELRPEAKNFKTFFVHTPNRTYYLMDPSGNAHKWCRKIQEVWRQRYQSHPDAAVQ

stoichiometry N [7]: 2
B2: PDK1 (exogenous, HA- or Flag-tagged), O15530 1-556 (enzyme)
chain: MARTTSQLYDAVPIQSSVVLCSCPSPSMVRTQTESSTPPGIPGGSRQGPAMDGTAAEPRPGAGSLQHAQPPPQPRKKRPEDFKFGKILGEGSFSTVVLARELATSREYAIKILEKRHIIKENKVPYVTRERDVMSRLDHPFFVKLYFTFQDDEKLYFGLSYAKNGELLKYIRKIGSFDETCTRFYTAEIVSALEYLHGKGIIHRDLKPENILLNEDMHIQITDFGTAKVLSPESKQARANSFVGTAQYVSPELLTEKSACKSSDLWALGCIIYQLVAGLPPFRAGNEYLIFQKIIKLEYDFPEKFFPKARDLVEKLLVLDATKRLGCEEMEGYGPLKAHPFFESVTWENLHQQTPPKLTAYLPAMSEDDEDCYGNYDNLLSQFGCMQVSSSSSSHSLSASDTGLPQRSGSNIEQYIHDLDSNSFELDLQFSEDEKRLLLEKQAGGNPWHQFVENNLILKMGPVDKRKGLFARRRQLLLTEGPHLYYVDPVNKVLKGEIPWSQELRPEAKNFKTFFVHTPNRTYYLMDPSGNAHKWCRKIQEVWRQRYQSHPDAAVQ
